Results: patent US20190031760A1 (Hoffmann-La Roche, published 2019)
Numbering of substitutions follows the chain as printed. Names and notes keep the numbering of the source.

T1: full-length human ASGPR H1 with a C-terminal SNAP tag, on transfected HEK293 cells (human, UniProt P07306 1-291, SNAP tag labeled with SNAP-Lumi4Tb (terbium))
T1 construct: whole, on cells; Transiently expressed in HEK293 cells for the FRET assay; also called transmembrane ASGPR H1-SNAP tag fusion protein labeled with terbium
T1 sequence (looked up): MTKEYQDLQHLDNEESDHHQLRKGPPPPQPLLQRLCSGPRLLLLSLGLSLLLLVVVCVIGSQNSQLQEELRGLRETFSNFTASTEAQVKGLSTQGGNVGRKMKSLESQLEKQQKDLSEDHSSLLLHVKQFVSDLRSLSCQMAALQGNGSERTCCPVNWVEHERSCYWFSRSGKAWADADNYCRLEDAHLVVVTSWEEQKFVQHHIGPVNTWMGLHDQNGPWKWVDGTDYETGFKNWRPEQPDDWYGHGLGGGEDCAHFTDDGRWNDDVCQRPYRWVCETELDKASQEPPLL

T2: human ASGPR H1 on ASGPR-positive hepatic cells (HepG2, primary human hepatocytes, Huh-7) (human, UniProt P07306 1-291)
T2 construct: whole, on cells; Endogenous receptor on cells; the antibodies were selected on H1; also called surface-exposed ASGPR
T2 sequence (looked up): T1 sequence (looked up)

B1: R7E12 IgG (antibody, V domains shown)
VH: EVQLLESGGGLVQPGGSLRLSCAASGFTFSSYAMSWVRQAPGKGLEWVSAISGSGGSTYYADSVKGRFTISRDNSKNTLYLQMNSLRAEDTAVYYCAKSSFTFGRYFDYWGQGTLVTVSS
VL: SSELTQDPAVSVALGQTVRITCQGDSLRSYYASWYQQKPGQAPVLVIYGKNNRPSGIPDRFSGSSSGNTASLTITGAQAEDEADYYCNSRKSSSKNVVFGGGTKLTVL
notes: To be rechecked
B2: 51A12 IgG (antibody, V domains shown)
VH: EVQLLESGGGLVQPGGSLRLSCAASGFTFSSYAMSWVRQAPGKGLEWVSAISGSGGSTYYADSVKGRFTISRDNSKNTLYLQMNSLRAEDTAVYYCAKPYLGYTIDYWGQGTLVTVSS
VL: SSELTQDPAVSVALGQTVRITCQGDSLRSYYASWYQQKPGQAPVLVIYGKNNRPSGIPDRFSASSSGNTASLTITGAQAEDEADYYCNSRDICCNRSVRNFGGGTKLTVL
notes: also called 51A12 human IgG1 antibody; clone 51A12 IgG
B3: R5C2 IgG (antibody, V domains shown)
VH: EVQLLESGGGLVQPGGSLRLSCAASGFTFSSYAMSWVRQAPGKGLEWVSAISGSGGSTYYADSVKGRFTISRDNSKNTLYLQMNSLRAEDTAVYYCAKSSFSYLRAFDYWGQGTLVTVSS
VL: SSELTQDPAVSVALGQTVRITCQGDSLRSYYASWYQQKPGQAPVLVIYGRNNRPSGIPDRFSGSSSGNTASLTITGAQAEDEADYYCNSRDRRGYSVFGGGTKLTVL
notes: also called R5C2 human IgG1 antibody
B4: R9E10 IgG (antibody, V domains shown)
VH: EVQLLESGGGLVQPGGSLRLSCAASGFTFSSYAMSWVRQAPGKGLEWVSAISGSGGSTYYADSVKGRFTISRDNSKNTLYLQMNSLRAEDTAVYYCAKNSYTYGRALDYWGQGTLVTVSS
VL: B3 VL with R50K, D91N, R92V, Y95K, S96L
notes: also called R9E10 human IgG1 antibody
B5: 4F3 IgG (antibody, V domains shown)
VH: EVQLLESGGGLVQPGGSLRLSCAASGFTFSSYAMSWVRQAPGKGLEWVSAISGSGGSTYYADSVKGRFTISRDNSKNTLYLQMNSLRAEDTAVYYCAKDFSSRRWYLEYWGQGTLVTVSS
VL: SSELTQDPAVSVALGQTVRITCQGDSLRSYYASWYQQKPGQAPVLVIYGKNNRPSGIPDRFSGSSSGNTASLTITGAQAEDEADYYCNSLERIGYLSYVFGGGTKLTVL
notes: also called 4F3 human IgG1 antibody; clone 4F3
B6: 51A12_E7 Fab (Fab, V domains shown)
VH: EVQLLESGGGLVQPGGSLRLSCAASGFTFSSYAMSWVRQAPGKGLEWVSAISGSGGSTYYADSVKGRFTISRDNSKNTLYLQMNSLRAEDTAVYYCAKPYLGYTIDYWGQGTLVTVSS
VL: B2 VL with A63G, I92Y, C93R, C94Y, S97A, N100P
notes: Fab
B7: 51A12_A6 Fab (Fab, V domains shown)
VH: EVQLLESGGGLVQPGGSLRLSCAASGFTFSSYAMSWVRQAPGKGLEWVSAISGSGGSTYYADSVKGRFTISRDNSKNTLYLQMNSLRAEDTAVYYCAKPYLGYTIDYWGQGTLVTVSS
VL: B2 VL with A63G, D91T, I92Y, C93S, C94Y, S97A
notes: Fab; also called Variant 51A12_A6
B8: 51A12 S116A Fab (Fab, V domains shown)
VH: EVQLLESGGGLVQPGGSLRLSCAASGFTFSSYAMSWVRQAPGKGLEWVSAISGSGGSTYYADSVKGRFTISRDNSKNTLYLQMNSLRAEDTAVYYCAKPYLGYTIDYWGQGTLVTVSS
VL: B2 VL with S97A
notes: Fab
B9: 51A12_H3 Fab (Fab, V domains shown)
VH: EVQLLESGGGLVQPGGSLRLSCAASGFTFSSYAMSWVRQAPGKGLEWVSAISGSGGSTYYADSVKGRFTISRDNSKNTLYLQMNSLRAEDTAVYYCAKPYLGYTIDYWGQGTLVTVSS
VL: B2 VL with A63G, I92Y, C93K, C94F, S97V
notes: Fab
B10: 51A12_H6 Fab (Fab, V domains shown)
VH: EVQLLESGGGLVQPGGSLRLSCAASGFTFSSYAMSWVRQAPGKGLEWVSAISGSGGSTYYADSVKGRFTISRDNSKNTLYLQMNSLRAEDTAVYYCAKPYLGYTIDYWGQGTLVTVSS
VL: B2 VL with A63G, I92Y, C93K, C94W, S97V, N100H
notes: Fab
B11: 51A12_C7 Fab (Fab, V domains shown)
VH: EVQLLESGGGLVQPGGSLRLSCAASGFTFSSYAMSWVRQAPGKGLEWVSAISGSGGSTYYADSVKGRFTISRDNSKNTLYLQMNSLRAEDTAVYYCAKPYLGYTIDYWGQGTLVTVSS
VL: B2 VL with A63G, C93R, C94Y, S97V, N100P
notes: Fab
B12: 51A12_D1 Fab (Fab, V domains shown)
VH: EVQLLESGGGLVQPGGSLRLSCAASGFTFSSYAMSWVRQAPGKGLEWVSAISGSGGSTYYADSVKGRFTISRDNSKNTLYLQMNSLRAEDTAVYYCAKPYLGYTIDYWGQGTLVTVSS
VL: B2 VL with A63G, D91T, I92Y, C93S, C94Y, S97A, N100P
notes: Fab
B13: 51A12_C1 Fab (Fab, V domains shown)
VH: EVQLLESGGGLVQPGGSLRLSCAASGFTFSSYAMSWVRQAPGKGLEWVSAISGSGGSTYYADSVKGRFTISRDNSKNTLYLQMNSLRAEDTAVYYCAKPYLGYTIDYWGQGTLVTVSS
VL: B2 VL with A63G, D91S, I92Y, C93A, C94F, S97V
notes: Fab
B14: R7E12 Fab (Fab, V domains shown)
VH: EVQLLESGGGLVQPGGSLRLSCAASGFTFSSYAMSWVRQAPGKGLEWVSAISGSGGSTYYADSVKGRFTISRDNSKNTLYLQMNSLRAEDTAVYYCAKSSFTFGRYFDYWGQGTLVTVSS
VL: B1 VL
notes: To be rechecked
B15: R9E10 Fab (Fab, V domains shown)
VH: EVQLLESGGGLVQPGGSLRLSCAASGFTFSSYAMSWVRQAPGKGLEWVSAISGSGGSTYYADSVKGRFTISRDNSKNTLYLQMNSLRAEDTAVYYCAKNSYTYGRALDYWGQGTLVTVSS
VL: B3 VL with R50K, D91N, R92V, Y95K, S96L
notes: Human lambda Fab from E. coli
B16: R5C2 Fab (Fab, V domains shown)
VH: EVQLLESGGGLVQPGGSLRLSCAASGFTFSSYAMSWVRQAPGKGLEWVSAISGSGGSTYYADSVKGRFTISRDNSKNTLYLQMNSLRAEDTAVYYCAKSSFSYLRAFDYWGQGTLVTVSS
VL: B3 VL
notes: Human lambda Fab from E. coli
B17: 4F3 Fab (Fab, V domains shown)
VH: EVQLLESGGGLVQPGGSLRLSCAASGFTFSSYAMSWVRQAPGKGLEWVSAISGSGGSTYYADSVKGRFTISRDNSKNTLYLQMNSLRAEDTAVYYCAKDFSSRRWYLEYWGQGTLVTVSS
VL: B5 VL
notes: Human lambda Fab from E. coli; also called clone 4F3
B18: 52C4 Fab (Fab, V domains shown)
VH: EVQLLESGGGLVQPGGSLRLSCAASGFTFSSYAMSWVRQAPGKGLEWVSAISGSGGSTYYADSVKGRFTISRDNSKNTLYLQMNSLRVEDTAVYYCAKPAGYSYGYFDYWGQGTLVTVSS
VL: B1 VL with R90G, K91A, S94G, K95N, N96Q, V97L
notes: Human lambda Fab from E. coli
B19: 51A12 Fab (Fab, V domains shown)
VH: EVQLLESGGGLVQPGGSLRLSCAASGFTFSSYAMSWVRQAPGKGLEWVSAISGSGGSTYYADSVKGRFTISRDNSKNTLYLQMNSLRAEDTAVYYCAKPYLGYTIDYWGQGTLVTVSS
VL: B2 VL
notes: Human lambda Fab from E. coli, purified by IMAC; also called clone 51A12; parental clone 51A12
B20: 51A12_A6 human IgG1 antibody (antibody, V domains shown)
VH: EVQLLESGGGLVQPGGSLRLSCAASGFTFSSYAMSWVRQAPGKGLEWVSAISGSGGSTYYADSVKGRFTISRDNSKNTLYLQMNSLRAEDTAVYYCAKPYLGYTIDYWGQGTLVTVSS
VL: B2 VL with A63G, D91T, I92Y, C93S, C94Y, S97A
notes: also called 51A12_A6 IgG1-converted antibody
B21: 51A12_E7 human IgG1 antibody (antibody, V domains shown)
VH: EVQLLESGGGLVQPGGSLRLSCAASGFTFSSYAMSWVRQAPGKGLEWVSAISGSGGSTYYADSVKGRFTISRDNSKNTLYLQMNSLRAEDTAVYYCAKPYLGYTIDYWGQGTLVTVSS
VL: B2 VL with A63G, I92Y, C93R, C94Y, S97A, N100P
notes: also called 51A12_E7 IgG1-converted antibody
B22: 51A12_C7 human IgG1 antibody (antibody, V domains shown)
VH: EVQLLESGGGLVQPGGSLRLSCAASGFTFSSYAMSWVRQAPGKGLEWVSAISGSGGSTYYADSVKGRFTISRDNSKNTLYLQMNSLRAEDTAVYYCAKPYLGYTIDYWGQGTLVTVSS
VL: B2 VL with A63G, C93R, C94Y, S97V, N100P
notes: also called 51A12_C7 IgG1-converted antibody
B23: 51A12_C1 human IgG1 antibody (antibody, V domains shown)
VH: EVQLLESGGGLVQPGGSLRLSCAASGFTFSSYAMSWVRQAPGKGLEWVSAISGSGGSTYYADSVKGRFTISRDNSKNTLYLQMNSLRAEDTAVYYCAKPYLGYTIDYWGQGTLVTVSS
VL: B2 VL with A63G, D91S, I92Y, C93A, C94F, S97V
notes: also called 51A12_C1 IgG1-converted antibody
B24: 51A12 A82G S116A Fab (Fab, V domains shown)
VH: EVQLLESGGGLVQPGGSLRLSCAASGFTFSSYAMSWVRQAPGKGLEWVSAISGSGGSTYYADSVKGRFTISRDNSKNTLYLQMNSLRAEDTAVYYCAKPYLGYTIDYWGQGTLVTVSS
VL: SSELTQDPAVSVALGQTVRITCQGDSLRSYYASWYQQKPGQAPVLVIYGKNNRPSGIPDRFSGSSSGNTASLTITGAQAEDEADYYCNSRDICCNRAVRNFGGGTKLTVLG
notes: Light chain variant of 51A12 with the parental heavy chain; To be rechecked

target: T1, full-length human ASGPR H1 with a …; experiment: FRET on HEK293 cells expressing terbium-labeled ASGPR H1-SNAP; IgG1 at 50-0.39 nM, anti-humanFc-d2 as acceptor

| Kd | Binder |
| --- | --- |
| 22 nM | B1 |
| 200 nM | B2 |
| 5.9 nM | B3 |
| 6.2 nM | B4 |
| 4.5 nM | B5 |

target: T2, human ASGPR H1 on ASGPR-positive …; experiment: FACS on HepG2 cells, purified Fab at 1.1, 3.3 and 10 µg/ml, 30 min at 4°C, FITC anti-human F(ab')2 secondary

| binding result | Binder |
| --- | --- |
| binds | B6 |
| binds | B7 |
| binds | B8 |
| binds | B9 |
| binds | B10 |
| binds | B11 |
| binds | B12 |
| binds | B13 |

target: T3, avi-Fc-human ASGPR H1 stalk CRD (human, biotinylated at the N-terminal Avi tag); experiment: SPR (ProteOn XPR36), antigen captured by neutravidin, Fab as analyte;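 note: antigen surface loaded to 200, 400 or 800 RU in PBST pH 7.4, sensorgrams referenced against a buffer-only in-line channel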
T3 construct: Homodimeric (bivalent) Fc fusion of the human ASGPR H1 ECD (stalk and CRD); also called huASGPR H1 stalk CRD; Fc-stalk-CRD

| Kd | koff | kon | Binder |
| --- | --- | --- | --- |
| 9.12 nM | 0.00268 s⁻¹ | 294000 M⁻¹ s⁻¹ | B14 |
| 3.6 nM | 0.00211 s⁻¹ | 586000 M⁻¹ s⁻¹ | B15 |
| 2.65 nM | 0.00112 s⁻¹ | 423000 M⁻¹ s⁻¹ | B16 |
| 18.2 nM | 0.00408 s⁻¹ | 224000 M⁻¹ s⁻¹ | B17 |

target: T4, avi-Fc-human CLEC10A stalk CRD (human, biotinylated at the N-terminal Avi tag); experiment: as above
T4 construct: Homodimeric Fc fusion of the human CLEC10A ECD, closest homologue of ASGPR H1, used as specificity control; also called huCLEC10A stalk CRD
T4 sequence (chain, as listed by the source limits assumed): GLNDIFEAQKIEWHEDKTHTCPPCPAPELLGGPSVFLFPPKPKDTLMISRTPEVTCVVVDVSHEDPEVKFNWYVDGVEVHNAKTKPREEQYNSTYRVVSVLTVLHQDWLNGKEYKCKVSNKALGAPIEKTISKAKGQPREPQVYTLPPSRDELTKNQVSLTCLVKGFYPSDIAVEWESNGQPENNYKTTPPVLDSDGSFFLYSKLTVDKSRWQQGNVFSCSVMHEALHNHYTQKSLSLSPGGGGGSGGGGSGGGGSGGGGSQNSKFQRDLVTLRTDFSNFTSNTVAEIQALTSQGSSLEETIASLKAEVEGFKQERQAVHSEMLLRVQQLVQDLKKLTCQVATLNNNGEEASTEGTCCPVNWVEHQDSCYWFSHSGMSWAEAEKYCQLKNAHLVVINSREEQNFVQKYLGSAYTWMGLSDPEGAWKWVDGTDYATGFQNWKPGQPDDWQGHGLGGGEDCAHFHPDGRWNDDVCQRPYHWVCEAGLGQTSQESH

| binding result | Binder |
| --- | --- |
| no binding | B18 |
| no binding | B14 |
| no binding | B15 |
| no binding | B16 |
| no binding | B17 |

target: T5, avi-Fc-cynomolgus ASGPR H1 stalk (cynomolgus, biotinylated at the N-terminal Avi tag); experiment: as above
T5 construct: Homodimeric Fc fusion (wild type Fc); also called cyASGPR H1 stalk
T5 sequence (chain, as listed by the source limits assumed): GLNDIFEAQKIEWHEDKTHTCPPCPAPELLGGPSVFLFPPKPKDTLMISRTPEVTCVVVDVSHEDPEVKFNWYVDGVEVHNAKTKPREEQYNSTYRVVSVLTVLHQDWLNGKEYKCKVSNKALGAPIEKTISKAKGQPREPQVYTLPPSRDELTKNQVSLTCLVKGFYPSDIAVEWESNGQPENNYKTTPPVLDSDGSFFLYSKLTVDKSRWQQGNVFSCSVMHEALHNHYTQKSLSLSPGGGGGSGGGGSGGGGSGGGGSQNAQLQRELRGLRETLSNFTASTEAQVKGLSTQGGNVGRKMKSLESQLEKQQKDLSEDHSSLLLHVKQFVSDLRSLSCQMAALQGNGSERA

| Kd | koff | kon | Binder |
| --- | --- | --- | --- |
| 33.6 nM | 0.0048 s⁻¹ | 143000 M⁻¹ s⁻¹ | B17 |

target: T6, avi-Fc-cynomolgus ASGPR H1 stalk CRD (cynomolgus, biotinylated at the N-terminal Avi tag); experiment: as above
T6 construct: Homodimeric Fc fusion of the cynomolgus ASGPR H1 ECD; also called cyASGPR H1 stalk CRD

| Kd | koff | kon | Binder |
| --- | --- | --- | --- |
| 9.55 nM | 0.00236 s⁻¹ | 247000 M⁻¹ s⁻¹ | B14 |
| 4.34 nM | 0.00199 s⁻¹ | 460000 M⁻¹ s⁻¹ | B15 |
| 3.41 nM | 0.00114 s⁻¹ | 334000 M⁻¹ s⁻¹ | B16 |
| 21.6 nM | 0.00365 s⁻¹ | 169000 M⁻¹ s⁻¹ | B17 |

target: T7, avi-Fc-human ASGPR H1 stalk (human, biotinylated at the N-terminal Avi tag); experiment: as above
T7 construct: Homodimeric Fc fusion (wild type Fc); also called huASGPR H1 stalk; Fc-stalk
T7 sequence (chain, as listed by the source limits assumed): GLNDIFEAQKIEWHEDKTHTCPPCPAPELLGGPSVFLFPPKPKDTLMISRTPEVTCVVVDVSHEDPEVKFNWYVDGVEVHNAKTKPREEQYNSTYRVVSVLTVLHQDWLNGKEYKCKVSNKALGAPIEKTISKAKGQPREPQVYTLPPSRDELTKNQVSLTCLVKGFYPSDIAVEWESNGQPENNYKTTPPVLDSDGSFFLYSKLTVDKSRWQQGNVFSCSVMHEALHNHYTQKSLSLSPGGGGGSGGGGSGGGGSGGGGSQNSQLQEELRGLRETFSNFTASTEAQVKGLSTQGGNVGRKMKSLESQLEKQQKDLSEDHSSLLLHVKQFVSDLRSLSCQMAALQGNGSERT

| Kd | koff | kon | Binder |
| --- | --- | --- | --- |
| 29.5 nM | 0.00445 s⁻¹ | 151000 M⁻¹ s⁻¹ | B17 |

target: T8, avi-Fc-human ASGPR H1 CRD (human, UniProt P0DOX5 223-449 = IgG part, biotinylated at the N-terminal Avi tag); experiment: as above
T8 construct: also called Fc-CRD; hu/cyASGPR H1 CRD

| Kd | koff | kon | Binder |
| --- | --- | --- | --- |
| 28.6 nM | 0.00396 s⁻¹ | 139000 M⁻¹ s⁻¹ | B18 |
| 0.57 nM | 6.28e-05 s⁻¹ | 110000 M⁻¹ s⁻¹ | B19 |

target: T2, human ASGPR H1 on ASGPR-positive …; experiment: FACS on HepG2 cells, human IgG1 in a dilution row up to 20 µg/ml, 30 min at 4°C, FITC anti-human IgG Fc secondary

| binding result | Binder |
| --- | --- |
| binds | B20 |

target: T8, avi-Fc-human ASGPR H1 CRD; experiment: SPR (ProteOn XPR36), antigen captured by neutravidin, antibody construct as analyte

| Kd | koff | kon | Binder |
| --- | --- | --- | --- |
| 28.6 nM | 0.00396 s⁻¹ | 139000 M⁻¹ s⁻¹ | B18 |
| 0.571 nM | 6.28e-05 s⁻¹ | 110000 M⁻¹ s⁻¹ | B19 |
| 0.21 nM | 7.34e-05 s⁻¹ | 350000 M⁻¹ s⁻¹ | B2 |

target: T2, human ASGPR H1 on ASGPR-positive …; experiment: FACS on HepG2 cells, FITC-labeled IgG 30 µg/ml bound at 4°C, washed, then 37°C for up to 120 min; PE anti-Fc detection of surface antibody

| binding result | Binder |
| --- | --- |
| binds | B21 |
| binds | B22 |
| binds | B23 |

target: T8, avi-Fc-human ASGPR H1 CRD; experiment: SPR (ProteOn XPR36), antigen captured by neutravidin, Fab as analyte; remark: another data set of the same source;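 for result: antigen surface loaded to 200, 400 or 800 RU in PBST pH 7.4, sensorgrams referenced against a buffer-only in-line channel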

| Kd | koff | kon | Binder |
| --- | --- | --- | --- |
| 0.448 nM | 9.64e-05 s⁻¹ | 215000 M⁻¹ s⁻¹ | B6 |
| 0.57 nM | 6.28e-05 s⁻¹ | 110000 M⁻¹ s⁻¹ | B19 |
| 0.0801 nM | 2.61e-05 s⁻¹ | 326000 M⁻¹ s⁻¹ | B7 |
| 1.43 nM | 0.000178 s⁻¹ | 131000 M⁻¹ s⁻¹ | B8 |
| 0.51 nM | 8.3e-05 s⁻¹ | 163000 M⁻¹ s⁻¹ | B9 |
| 0.325 nM | 2.79e-05 s⁻¹ | 86000 M⁻¹ s⁻¹ | B10 |
| 0.235 nM | 4.67e-05 s⁻¹ | 199000 M⁻¹ s⁻¹ | B11 |
| 0.221 nM | 8.85e-05 s⁻¹ | 400000 M⁻¹ s⁻¹ | B12 |
| 0.241 nM | 4.19e-05 s⁻¹ | 174000 M⁻¹ s⁻¹ | B13 |
| 1.25 nM | 0.00016 s⁻¹ | 127000 M⁻¹ s⁻¹ | B24 |
